Laboratory results taken from the RNAGym collection of RNA variant scans (doi:10.7554/elife.80360).

B1: HDV Ribozyme (parent)
chain: GGCCGGCAUGGUCCCAGCCUCCUCGCUGGCGCCGGCUGGGCAACAUUCCGAGGGGACCGUCCCCUCGGUAAUGGCGAAUGGGACCCA

Variants of: B1
Assay: self-cleavage, relative activity (ratio to wild type); higher = more cleavage; co-transcriptional

Variant	self-cleavage
G29A C86U	0.0314
G29A C86G	0.138
G28A U46C	0.0594
G28A U46A	0.0326
G28U G82U	0.0468
G29A G76C	0.256
G28U G55A	0.0712
G28U G55U	0.185
G28C G68U	0.0426
G28C G68C	0.138
G29A G74U	0.073
G28A G52U	0.0475
G28A G52A	0.0764
G28U U37G	0.18
G28U U37C	0.141
G29A U72A	0.122
G28A C86A	0.0256
G28C C62U	0.0369
G29A C64U	0.144
G28U A70U	0
G29A A42C	0.104
G29A U46C	0.138
G29A U46G	0.166
G29C C36G	0.0536

Variant	self-cleavage
G29C C36U	0.0755
G29A A70U	0.0739
G29A A70G	0.17
G29A A70C	0.0978
G28C G59A	0.185
G28C G59U	0.0678
G28A G34U	0.0277
G29A C85U	0.0978
G28A U60A	0.178
G28A U60C	0.0811
G28A U60G	0.0386
G28C U37G	0
G28C U37A	0.229
G28U C44U	0.0297
G28U C44G	0.111
G28U C44A	0
G28U G67A	0.164
G28U G67C	0.0545
G29A G53U	0.114
G29A A43U	0.0252
G29A A43G	0.0386
G29A G54A	0.0989
G29A G54C	0.113
G28C C86A	0.0583

Variant	self-cleavage
G28C C86G	0.0692
G28U C41U	0.0779
G28U U60A	0.17
G28U U60C	0.0755
G28U C84U	0.0489
G28U C84A	0.0594
G29A A56G	0.224
G29A A56C	0.198
G28U C36A	0.0898
G28U C36G	0.0665
G28U C36U	0
G29A C49A	0.136
G28A G31C	0
G28A G31U	0.133
G29A G67A	0.0791
G29A G67C	0.237
G29A G67U	0.231
G28C G39C	0
G28C G39A	0.0744
G28U A83U	0.0415
G29C C49G	0
G28C U79C	0.155
G28C U79A	0
G28U A77C	0.0475

Variant	self-cleavage
G28A G40A	0.0615
G28C C64A	0.104
G28C C64U	0.198
G28U U69A	0.162
G28U U69C	0.0791
G28U A56U	0.0941
G28U A56G	0
G29C A70U	0.0811
G29C A70C	0.0536
G29C A70G	0.101
G28U G31C	0.189
G28C G54A	0.0639
G28C G81C	0.0875
G28U G34C	0.101
G28U G34U	0.117
G28C G53U	0.123
G28C G53A	0.0941
G28C G53C	0
G29A G55A	0.208
G29A G55U	0.168
G29C A83C	0.142
G28U A87C	0.113
G28C U60C	0.0852
G28C A56U	0.138

Variant	self-cleavage
G28C A56G	0.107
G29A C33A	0.104
G28U G80C	0.0639
G28C A87U	0.0455
G28C A87C	0.0987
G28C A87G	0.125
G29A C61A	0.177
G28C C61U	0.185
G28U G35U	0.0936
G28C G73U	0.154
G28C G73C	0.148
G29A G80C	0.145
G29A G80A	0.163
G29A C58G	0.271
G29A C58U	0.197
G28A G73C	0.0256
G28A G73U	0.0326
G28U C86G	0.217
G28C A42G	0
G28C A42U	0.166
G28U G54A	0.115
G28U G54U	0.0712
G28U G54C	0.234
G29A C44G	0.151

Variant	self-cleavage
G29A C44A	0.198
G29C A51G	0
G28U C62U	0.205
G28U C62A	0.154
G28A U47G	0.268
G28A U47A	0
G29A A45C	0
G29A A45G	0.142
G29A A45U	0.0332
G28A G80U	0.0989
G29C C33A	0.0959
G28A G38U	0.0496
G28A G67U	0.0536
G28C C36G	0.0773
G29A C30A	0.0264
G29A C30U	0.095
G29A U37A	0.136
G28C C33A	0.106
G28C C33U	0.232
G28C C66G	0.13
G28C A78C	0.0852
G28C G34C	0.156
G28C G34U	0.0386
G28U C63U	0.12

Variant	self-cleavage
G28A G81C	0.0674
G28A G81U	0.0287
G28U A45G	0.208
G29C C57A	0.125
G29C A71C	0.0536
G29A A78G	0.0804
G29A A78C	0.0997
G29A G38U	0.113
G29A C36G	0.111
G29A C36A	0.0222
G29A A71U	0.0615
G28C G55U	0.196
G28C G55A	0.18
G29C A87G	0.086
G29C A87C	0.0932
G29C A87U	0.0378
G28U G38C	0.0665
G28U G38A	0.0863
G29A C84A	0.245
G29A C84U	0.133
G28A G76U	0.0923
G28A G76A	0.0563
G29C C44A	0.0554
G28U G50U	0.163

Variant	self-cleavage
G28U G50C	0.212
G28A G50C	0.0978
G28U A42U	0.138
G28U A42C	0.0415
G29C C32A	0.0791
G29C C32U	0.119
G28U A71U	0.246
G28U G59A	0.0936
G28C G35A	0.0326
G28C G35U	0.0997
G28C G35C	0.0554
G29A A77G	0.095
G28U G39A	0.0256
G28U G39C	0.125
G28C G82U	0.102
G28C G82A	0.0852
G28C U46G	0.0755
G28C U46C	0.0723
G28C G40C	0.113
G29A C41G	0.0339
G29A G68U	0.0841
G29A G68C	0.111
G29A G68A	0.107
G29A C66U	0.114

Variant	self-cleavage
G29C A56G	0.0615
G29C A56C	0.237
G28U G73C	0
G28U G73A	0
G29C A45C	0.111
G29C A45G	0
G28C C63U	0.0369
G28U G68C	0.0733
G28C G52C	0.229
G28C G52U	0.0831
G29A G35C	0.149
G29A G35U	0.101
G28U A43C	0.0755
G28U A43G	0.131
G28C G50C	0.0437
G28A G35U	0.0601
G28U C57U	0.208
G28U C57A	0.102
G28U C61G	0.0678
G29C C48U	0.135
G28U C75A	0.0755
G28U C64A	0.125
G28A G82U	0.138
G28C C49U	0.111

Variant	self-cleavage
G29A G39C	0.0941
G29A G39U	0.0432
G29A G39A	0.0863
G29C A78U	0.0773
G28A C85G	0.0332
G28U C49G	0.116
G28C U47C	0.0665
G28C U47G	0.0536
G28C U47A	0.0536
G28U G53C	0.0692
G28U G53U	0.124
G28U G53A	0.0801
G29A C57A	0.282
G29A C57U	0.234
G28C G74U	0.0692
G28C G74C	0.151
G29A C32U	0.218
G29A C32A	0.0222
G28U U46G	0
G28U U46C	0
G29A C62A	0.391
G28U U65G	0.128
G28U U65C	0.0707
G28U C30G	0.0886

Variant	self-cleavage
G28U C30A	0.0923
G28U C30U	0
G28A U79G	0.0489
G28C C57G	0.115
G28C C57A	0
G28U A78C	0.0923
G28U G76U	0.187
G28U G76A	0.142
G28U G76C	0.242
G29A U47A	0.148
G29A G82U	0.0911
G28A U65A	0.0755
G28A U65G	0.0386
G28U C85U	0.0639
G28U C85G	0.108
G28A U69G	0
G28C A45C	0.0594
G28C A45G	0.0811
G28U U47G	0.095
G28U U47A	0.111
G28A G59U	0.117
G28A G59C	0.086
G28U C58G	0.0852
G28C C48U	0.0978

Variant	self-cleavage
G29A C48A	0.262
G29A C48U	0.0656
G29A C48G	0.0875
G28C C32A	0.154
G28C C32G	0
G28C A71G	0.222
G29C C30G	0
G29C C30U	0.0415
G28A U37C	0.151
G28C C84U	0.0396
G28C C75U	0.0361
G28C C75A	0.113
G28C G29U	0
G28C C44G	0
G28A G55C	0.0252
G28A G55A	0.153
G28A G29A	0.0978
G28A G29U	0.111
G28A G29C	0.0519
G28U G74U	0.0639
G28U G74C	0.0992
G28U G74A	0.0528
G28U U79C	0.0707
G28U U79A	0.0978

Variant	self-cleavage
G28U U79G	0.0978
G28U C33U	0.117
G28U C33A	0.124
G28C A43U	0.111
G28U U72A	0
G29C A77C	0.0639
G28C G80A	0.193
G28U C48A	0.125
G28U C48U	0.0361
G28C A77U	0.107
G29A G81U	0.125
G28U C32G	0.133
G29A G52A	0.0554
G28U G29C	0.106
G28A G54A	0.0811
G28A G54U	0.0733
G29A G40A	0.237
G29A A51G	0.366
G29A A51U	0.277
G29A U60G	0.0923
G29A U60C	0.0997
G28U C66G	0.277
G28U C66A	0.197
G28C G76C	0.136

Variant	self-cleavage
G28C C85A	0.0475
G29A C63U	0.226
G29A C63G	0.128
G29A U65C	0.17
G29A U65A	0.0627
G29A C75U	0.0339
G28C A70U	0.101
G28C A70G	0
G28C A70C	0.104
G28C A83U	0.0437
G28C A83C	0
G28C A83G	0.0542
G29C A43U	0.0519
G28C U72C	0
G28C U72G	0.138
G29C C41U	0.0297
G29C C41G	0.229
G29C C41A	0
G29A A83G	0.0611
G29A A83U	0.208
G29C A42U	0.0314
G29C A42G	0
